Experimental data: publication PMC11978871, “PACT prevents aberrant activation of PKR by endogenous dsRNA without sequestration” (Nature Communications, 2024)

Tests used:
[1] = target: the molecule itself; experiment: NMR structure; PACT D3 in 20 mM HEPES pH 7.5, 50 mM KCl, 2 mM DTT, 30 °C; inter-chain NOEs from a mixed-isotope sample (0.4 mM each protomer)
PKR K296R [2] = target: T1, PKR K296R (UniProt P19525 1-551, K296R); experiment: SEC-MALS; 4 PKR per dsRNA; EMSA: 20 mM HEPES pH 7.5, 150 mM NaCl, 2 mM DTT, RT 15 min, 0.2 ng/ul 32P-112 bp dsRNA, 0-4000 nM protein, Bis-Tris native PAGE; smFRET buffer not in material; conditions: protein: recombinant; tags: pET29b; Cy5-labeled in smFRET; blunt
PKR K296R [3] = target: T1, PKR K296R; experiment: SEC-MALS; 3 PKR per dsRNA; EMSA: 20 mM HEPES pH 7.5, 150 mM NaCl, 2 mM DTT, RT 15 min, 0.2 ng/ul 32P-112 bp dsRNA, 0-4000 nM protein, Bis-Tris native PAGE; smFRET buffer not in material; conditions: protein: recombinant; tags: pET29b; Cy5-labeled in smFRET; blunt

T1 sequence (P19525 whole entry K296R): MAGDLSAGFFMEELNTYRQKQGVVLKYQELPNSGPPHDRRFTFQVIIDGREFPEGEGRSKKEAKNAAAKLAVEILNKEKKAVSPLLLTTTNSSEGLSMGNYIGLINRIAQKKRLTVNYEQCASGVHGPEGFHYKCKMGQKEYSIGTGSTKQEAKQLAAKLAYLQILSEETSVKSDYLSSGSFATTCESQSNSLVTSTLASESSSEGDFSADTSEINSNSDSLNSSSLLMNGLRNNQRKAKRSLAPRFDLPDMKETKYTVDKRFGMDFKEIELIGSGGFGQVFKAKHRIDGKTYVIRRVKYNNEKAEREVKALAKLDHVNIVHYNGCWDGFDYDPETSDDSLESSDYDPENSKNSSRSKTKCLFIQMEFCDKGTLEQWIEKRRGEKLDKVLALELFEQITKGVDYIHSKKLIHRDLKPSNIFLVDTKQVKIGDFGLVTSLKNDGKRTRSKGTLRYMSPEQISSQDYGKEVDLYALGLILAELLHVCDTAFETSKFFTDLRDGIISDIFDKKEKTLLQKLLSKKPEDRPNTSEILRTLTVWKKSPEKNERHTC

B1: PACT DRBD3 (residues 235-313) (domain or fragment, UniProt O75569 235-313, looked up)
chain: SIPNTDYIQLLSEIAKEQGFNITYLDIDELSANGQYQCLAELSTSPITVCHGSGISCGNAQSDAAHNALQYLKIIAERK
modifications: isotope-labelled (15N, 13C, ~85% 2H; for the mixed sample 15N,2H-labelled and 13C-labelled protomers)
notes: PACT DRBD3, residues 235-313, in pET47b between BamHI and SalI; Homodimer in the NMR structure; also called PACT D3; source: E. coli BL21(DE3) in M9 minimal media, purified (Ni-NTA, SEC)
In the case of B1, the “stoichiometry N” value [1] is reported as 2.

B2: 62 bp dsRNA (dsRNA)
RNA 1: GGGAGAAUGUCGAAUGGGUAUUCCACAGACGAGAAUUUCCGCUAUCUCAUCUCGUGUCUCCC
RNA 2: GGGAGACACGAGAUGAGAUAGCGGAAAUUCUCGUCUGUGGAAUACCCAUUCGACAUUCUCCC
B2: binds (PKR K296R [2]).

B3: 42 bp dsRNA (dsRNA)
RNA 1: GGGAGAAUGUCGAAUGGGUAUUCCACAGACGAGAAUUCUCCC
RNA 2: GGGAGAAUUCUCGUCUGUGGAAUACCCAUUCGACAUUCUCCC
B3: binds (PKR K296R [3]).
